Consider three substances from publication PMC4499135.

What all share (test): EMSA
In general terms: A gel shift assay detects complexes by their altered migration in electrophoresis.

One series deals with TRF2. The conditions noted are these: 20 mM Hepes pH 7.9, 100 mM NaCl, 50 mM KCl, 1 mM MgCl2, 0.1 mM EDTA, 1 mM DTT, 5% glycerol, 0.5 mg/ml BSA, 0.1% NP-40, chicken erythrocyte nucleosome carrier ….
For a further series, the system named is TRF2AΔB. The conditions noted are these: 20 mM Hepes pH 7.9, 100 mM NaCl, 50 mM KCl, 1 mM MgCl2, 0.1 mM EDTA, 1 mM DTT, 5% glycerol, 0.5 mg/ml BSA, 0.1% NP-40, chicken erythrocyte nucleosome carrier ….
In another series the test system is TRF2ΔB. The conditions noted are these: 20 mM Hepes pH 7.9, 100 mM NaCl, 50 mM KCl, 1 mM MgCl2, 0.1 mM EDTA, 1 mM DTT, 5% glycerol, 0.5 mg/ml BSA, 0.1% NP-40, chicken erythrocyte nucleosome carrier ….
The subject of the next series is TRF1. The conditions noted are these: 20 mM Hepes pH 7.9, 100 mM NaCl, 50 mM KCl, 1 mM MgCl2, 0.1 mM EDTA, 1 mM DTT, 5% glycerol, 0.5 mg/ml BSA, 0.1% NP-40, chicken erythrocyte nucleosome carrier ….
In another series the test system is TRF2-Myb. The conditions noted are these: histone octamer, salt dilution; 20 mM Hepes pH 7.9, 100 mM NaCl, 50 mM KCl, 1 mM MgCl2, 0.1 mM EDTA, 1 mM DTT, 5% glycerol, 0.5 mg/ml BSA, 0.1% NP-40, chicken erythrocyte nucleosome carrier ….
In a further series the test system is TRF1-Myb. The conditions noted are these: histone octamer, salt dilution; 20 mM Hepes pH 7.9, 100 mM NaCl, 50 mM KCl, 1 mM MgCl2, 0.1 mM EDTA, 1 mM DTT, 5% glycerol, 0.5 mg/ml BSA, 0.1% NP-40, chicken erythrocyte nucleosome carrier ….
Setting [1] is: intact histone octamer, scale: fold higher affinity vs naked Tel2-601-Tel2.
Setting [2] is: histone tails removed by trypsin.

In the case of Tel2-601-Tel2 NCP, the binding signal is 2 with TRF2 (intact histone octamer, scale: fold lower affinity vs naked Tel2-601-Tel2); 2 in the series on TRF2AΔB (setting [1]); 3 in the series on TRF2ΔB (setting [1]); 3 in the series with TRF1 (setting [1]).

Regarding Tel2-601-Tel2 tailless NCP, the binding signal (fold higher affinity vs intact NCP) in the series with TRF2 (setting [2]) was determined as 2. Besides, the binding signal (fold lower affinity vs intact NCP) came out at 3 in the series on TRF2AΔB (setting [2]), 2 in the series on TRF2ΔB (setting [2]) and 3 in the series with TRF1 (setting [2]).

As to Tel8-L NCP, the binding signal (fold lower affinity vs naked Tel8-L) is 100 in the series on TRF2 (C1/2 extrapolated, 3 experiments, histone octamer, salt dilution); 13 with TRF2-Myb; 11 in the series on TRF1-Myb.
